The supplement of paper PMC7877785
± gives the uncertainty stated by the source.

Experiment: self-splicing fitness, log relative to wild type (ln ratio); higher = more splicing; Tetrahymena group I intron in knt gene, E. coli kanamycin selection, DiMSum; sequences stand for … in CUCUCU…GGAGGGAAAAGUUAUCAGGCAUGCACCUGGUAGCUAGUCUUUAAACCAAUAGAUUGCAUCGGUUUAAAAGGCAAGACCGUCAAAUUGCGGGAAAGGGGUCAACAGCCGUUCAGUACCAAGUCUCAGGGGAAACUUUGAGAUGGCCUUGCAAAGGGUAUGGUAAUAAGCUGACGGACAUGGUCCUAACCACGCAGCCAAGUCCUAAGUCAACAGAUCUUCUGUUGAUAUGGAUGCAGUUCACAGACUAAAUGUCGGUCGGGGAAGAUGUAUUCUUCUCAUAAGAUAUAGUCGGACCUCUCCUUAAUGGGAGCUAGCGGAUGAAGUGAUGCAACACUGGAGCCGCUGGGAACUAAUUUGUAUGCGAAAGUAUAUUGAUUAGUUUUGGAGUACUCGUGGUCG
In short: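 A randomised library covering all eight P1ex-region intron nucleotides was built with the intron in the knt kanamycin-resistance gene on pET-22b(+) and held in E. coli BL21(DE3). Cells were grown overnight at 37°C or 30°C on LB agar, with or without 25 μg/mL kanamycin, plus 100 μg/mL carbenicillin, 50 μM IPTG and 0.2% rhamnose, and pooled colonies were amplicon-sequenced on an Illumina HiSeq 2500. DiMSum fitness is the error-weighted combination of wild-type-normalised replicate fold changes, kanamycin versus none.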

ACGAAGCAAUAUUACGCUUC
self-splicing fitness (ln) (30 °C): -3.44 ± 0.19
self-splicing fitness (ln) (37 °C): -2.59 ± 0.2

ACGAAGCAAUAUUACGGAAA
self-splicing fitness (ln) (30 °C): -2.38 ± 0.17
self-splicing fitness (ln) (37 °C): -3.02 ± 0.21

ACGAAGCAAUAUUACGGAAU
self-splicing fitness (ln) (30 °C): -3.14 ± 0.12
self-splicing fitness (ln) (37 °C): -1.34 ± 0.1

ACGAAGCAAUAUUACGGAUA
self-splicing fitness (ln) (30 °C): -3.55 ± 0.32
self-splicing fitness (ln) (37 °C): -2.43 ± 0.23

ACGAAGCAAUAUUACGGGGA
self-splicing fitness (ln) (30 °C): -2.81 ± 0.21
self-splicing fitness (ln) (37 °C): -1.57 ± 0.16

ACGAAGCAAUAUUACGGUAA
self-splicing fitness (ln) (30 °C): -2.49 ± 0.17
self-splicing fitness (ln) (37 °C): -1.33 ± 0.14

ACGAAGCAAUAUUACGGUCA
self-splicing fitness (ln) (30 °C): -1.35 ± 0.14
self-splicing fitness (ln) (37 °C): -0.053 ± 0.13

ACGAAGCAAUAUUACGUACG
self-splicing fitness (ln) (30 °C): -3.8 ± 0.33
self-splicing fitness (ln) (37 °C): -0.988 ± 0.15

ACGAAGCAAUAUUACGUCAC
self-splicing fitness (ln) (30 °C): -4.98 ± 0.39
self-splicing fitness (ln) (37 °C): -2.43 ± 0.16

ACGAAGCAAUAUUACGUCGU
self-splicing fitness (ln) (30 °C): -3.41 ± 0.29
self-splicing fitness (ln) (37 °C): -3.5 ± 0.42

ACGAAGCAAUAUUACGUGUC
self-splicing fitness (ln) (30 °C): -3.76 ± 0.15
self-splicing fitness (ln) (37 °C): -2.7 ± 0.17

ACGAAGCAAUAUUACGUUAC
self-splicing fitness (ln) (30 °C): -3.77 ± 0.4
self-splicing fitness (ln) (37 °C): -1.17 ± 0.16

ACGAAGCAAUAUUACGUUUA
self-splicing fitness (ln) (30 °C): -2.05 ± 0.11
self-splicing fitness (ln) (37 °C): -0.875 ± 0.085

ACGCAGCAAUAUUACGAAAA
self-splicing fitness (ln) (30 °C): -2.91 ± 0.23
self-splicing fitness (ln) (37 °C): -2.7 ± 0.2

ACGCAGCAAUAUUACGAAGU
self-splicing fitness (ln) (30 °C): -3.6 ± 0.27
self-splicing fitness (ln) (37 °C): -0.721 ± 0.13

ACGCAGCAAUAUUACGACAG
self-splicing fitness (ln) (30 °C): -1.11 ± 0.076
self-splicing fitness (ln) (37 °C): -0.445 ± 0.099

ACGCAGCAAUAUUACGACUU
self-splicing fitness (ln) (30 °C): -0.543 ± 0.077
self-splicing fitness (ln) (37 °C): 0.0674 ± 0.09

ACGCAGCAAUAUUACGAGUC
self-splicing fitness (ln) (30 °C): -4.93 ± 0.27
self-splicing fitness (ln) (37 °C): -2.26 ± 0.18

ACGCAGCAAUAUUACGAGUG
self-splicing fitness (ln) (30 °C): -2.14 ± 0.052
self-splicing fitness (ln) (37 °C): -1.32 ± 0.062

ACGCAGCAAUAUUACGAUAG
self-splicing fitness (ln) (30 °C): -4.2 ± 0.21
self-splicing fitness (ln) (37 °C): -2.65 ± 0.19

ACGCAGCAAUAUUACGCAAC
self-splicing fitness (ln) (30 °C): -3.91 ± 0.32
self-splicing fitness (ln) (37 °C): -1.83 ± 0.18

ACGCAGCAAUAUUACGCACC
self-splicing fitness (ln) (30 °C): -0.334 ± 0.18
self-splicing fitness (ln) (37 °C): -0.22 ± 0.18

ACGCAGCAAUAUUACGCAGG
self-splicing fitness (ln) (37 °C): -1.05 ± 0.15

ACGCAGCAAUAUUACGCAGU
self-splicing fitness (ln) (30 °C): -3.29 ± 0.16
self-splicing fitness (ln) (37 °C): -2.78 ± 0.21

ACGCAGCAAUAUUACGCAUA
self-splicing fitness (ln) (30 °C): -2.18 ± 0.13
self-splicing fitness (ln) (37 °C): -0.994 ± 0.12

ACGCAGCAAUAUUACGCGGC
self-splicing fitness (ln) (30 °C): -3.37 ± 0.17
self-splicing fitness (ln) (37 °C): -3.06 ± 0.25

ACGCAGCAAUAUUACGCUCA
self-splicing fitness (ln) (30 °C): -0.563 ± 0.063
self-splicing fitness (ln) (37 °C): 0.124 ± 0.088

ACGCAGCAAUAUUACGCUGC
self-splicing fitness (ln) (30 °C): -3.38 ± 0.43
self-splicing fitness (ln) (37 °C): -3.02 ± 0.29

ACGCAGCAAUAUUACGGCCG
self-splicing fitness (ln) (30 °C): -1.66 ± 0.11
self-splicing fitness (ln) (37 °C): -0.0837 ± 0.15

ACGCAGCAAUAUUACGGGAG
self-splicing fitness (ln) (30 °C): -2.73 ± 0.11
self-splicing fitness (ln) (37 °C): -1.62 ± 0.11

ACGCAGCAAUAUUACGGGUC
self-splicing fitness (ln) (30 °C): -4.12 ± 0.21
self-splicing fitness (ln) (37 °C): -2.92 ± 0.17

ACGCAGCAAUAUUACGGUCA
self-splicing fitness (ln) (30 °C): -1.15 ± 0.069
self-splicing fitness (ln) (37 °C): -0.339 ± 0.069

ACGCAGCAAUAUUACGUAAA
self-splicing fitness (ln) (30 °C): -2.06 ± 0.12
self-splicing fitness (ln) (37 °C): -1.95 ± 0.2

ACGCAGCAAUAUUACGUAAU
self-splicing fitness (ln) (30 °C): -2.48 ± 0.083
self-splicing fitness (ln) (37 °C): -2.13 ± 0.12

ACGCAGCAAUAUUACGUCCG
self-splicing fitness (ln) (30 °C): -0.744 ± 0.085
self-splicing fitness (ln) (37 °C): -0.408 ± 0.1

ACGCAGCAAUAUUACGUUAG
self-splicing fitness (ln) (30 °C): -4.1 ± 0.16
self-splicing fitness (ln) (37 °C): -2.46 ± 0.12

ACGGAGCAAUAUUACGAAAU
self-splicing fitness (ln) (30 °C): -2.71 ± 0.22
self-splicing fitness (ln) (37 °C): -1.76 ± 0.24

ACGGAGCAAUAUUACGAAGA
self-splicing fitness (ln) (37 °C): -0.799 ± 0.24

ACGGAGCAAUAUUACGAAUG
self-splicing fitness (ln) (30 °C): -3.88 ± 0.43
self-splicing fitness (ln) (37 °C): -0.307 ± 0.27

ACGGAGCAAUAUUACGACAC
self-splicing fitness (ln) (30 °C): -4.35 ± 0.42
self-splicing fitness (ln) (37 °C): -1.94 ± 0.37

ACGGAGCAAUAUUACGCAAG
self-splicing fitness (ln) (30 °C): -3.14 ± 0.27
self-splicing fitness (ln) (37 °C): -1.79 ± 0.26

ACGGAGCAAUAUUACGCACG
self-splicing fitness (ln) (30 °C): -3.77 ± 0.35
self-splicing fitness (ln) (37 °C): -2.71 ± 0.37

ACGGAGCAAUAUUACGCAUA
self-splicing fitness (ln) (30 °C): -3.27 ± 0.21
self-splicing fitness (ln) (37 °C): -2.86 ± 0.22

ACGGAGCAAUAUUACGGCCG
self-splicing fitness (ln) (30 °C): -1.98 ± 0.16
self-splicing fitness (ln) (37 °C): -2.03 ± 0.28

ACGGAGCAAUAUUACGGCUA
self-splicing fitness (ln) (30 °C): -1.96 ± 0.21
self-splicing fitness (ln) (37 °C): -0.548 ± 0.14

ACGGAGCAAUAUUACGGCUU
self-splicing fitness (ln) (30 °C): -3.11 ± 0.4

ACGGAGCAAUAUUACGGGAA
self-splicing fitness (ln) (30 °C): -4.37 ± 0.36
self-splicing fitness (ln) (37 °C): -2.03 ± 0.31

ACGGAGCAAUAUUACGGGCU
self-splicing fitness (ln) (30 °C): -2.7 ± 0.25
self-splicing fitness (ln) (37 °C): -2.43 ± 0.27

ACGGAGCAAUAUUACGUAUC
self-splicing fitness (ln) (30 °C): -2.75 ± 0.2
self-splicing fitness (ln) (37 °C): -2.52 ± 0.29

ACGGAGCAAUAUUACGUCGU
self-splicing fitness (ln) (30 °C): -2.98 ± 0.26
self-splicing fitness (ln) (37 °C): -2.48 ± 0.19

ACGGAGCAAUAUUACGUGGU
self-splicing fitness (ln) (30 °C): -3.91 ± 0.4
self-splicing fitness (ln) (37 °C): -1.08 ± 0.2

ACGGAGCAAUAUUACGUGUA
self-splicing fitness (ln) (30 °C): -3.72 ± 0.29
self-splicing fitness (ln) (37 °C): -3.03 ± 0.23

ACGGAGCAAUAUUACGUUCG
self-splicing fitness (ln) (30 °C): -1.33 ± 0.097
self-splicing fitness (ln) (37 °C): -0.333 ± 0.13

ACGGAGCAAUAUUACGUUCU
self-splicing fitness (ln) (30 °C): -3.16 ± 0.31
self-splicing fitness (ln) (37 °C): -2.52 ± 0.22

ACGGAGCAAUAUUACGUUUG
self-splicing fitness (ln) (30 °C): -2.3 ± 0.12
self-splicing fitness (ln) (37 °C): -2.31 ± 0.19

ACGUAGCAAUAUUACGAAGG
self-splicing fitness (ln) (30 °C): -2.19 ± 0.21
self-splicing fitness (ln) (37 °C): -3.97 ± 0.46

ACGUAGCAAUAUUACGAAGU
self-splicing fitness (ln) (30 °C): -2.97 ± 0.2
self-splicing fitness (ln) (37 °C): -2.86 ± 0.21

ACGUAGCAAUAUUACGACAC
self-splicing fitness (ln) (30 °C): -1.46 ± 0.21
self-splicing fitness (ln) (37 °C): -0.658 ± 0.18

ACGUAGCAAUAUUACGACGU
self-splicing fitness (ln) (30 °C): -2.97 ± 0.15
self-splicing fitness (ln) (37 °C): -2.31 ± 0.19

ACGUAGCAAUAUUACGAGAC
self-splicing fitness (ln) (30 °C): -2.37 ± 0.3

ACGUAGCAAUAUUACGCACA
self-splicing fitness (ln) (30 °C): -0.463 ± 0.12
self-splicing fitness (ln) (37 °C): -0.501 ± 0.13

ACGUAGCAAUAUUACGCAUA
self-splicing fitness (ln) (30 °C): -1.82 ± 0.13
self-splicing fitness (ln) (37 °C): -1.2 ± 0.12

ACGUAGCAAUAUUACGCCAG
self-splicing fitness (ln) (30 °C): -1.59 ± 0.18
self-splicing fitness (ln) (37 °C): -2.19 ± 0.45

ACGUAGCAAUAUUACGCCUC
self-splicing fitness (ln) (30 °C): -2.48 ± 0.38
self-splicing fitness (ln) (37 °C): -2.16 ± 0.41

ACGUAGCAAUAUUACGCGCA
self-splicing fitness (ln) (30 °C): -0.687 ± 0.076
self-splicing fitness (ln) (37 °C): -0.337 ± 0.097

ACGUAGCAAUAUUACGGAAG
self-splicing fitness (ln) (30 °C): -3.32 ± 0.3
self-splicing fitness (ln) (37 °C): -1.91 ± 0.28

ACGUAGCAAUAUUACGGAAU
self-splicing fitness (ln) (30 °C): -2.29 ± 0.15
self-splicing fitness (ln) (37 °C): -2.07 ± 0.17

ACGUAGCAAUAUUACGGACG
self-splicing fitness (ln) (30 °C): -1.88 ± 0.17
self-splicing fitness (ln) (37 °C): -0.579 ± 0.13

ACGUAGCAAUAUUACGGAUC
self-splicing fitness (ln) (30 °C): -1.97 ± 0.096
self-splicing fitness (ln) (37 °C): -0.313 ± 0.097

ACGUAGCAAUAUUACGGAUG
self-splicing fitness (ln) (30 °C): -4.2 ± 0.24
self-splicing fitness (ln) (37 °C): -2.42 ± 0.21

ACGUAGCAAUAUUACGGUGU
self-splicing fitness (ln) (30 °C): -2.43 ± 0.11
self-splicing fitness (ln) (37 °C): -1.81 ± 0.14

ACGUAGCAAUAUUACGUACU
self-splicing fitness (ln) (30 °C): -1.11 ± 0.11
self-splicing fitness (ln) (37 °C): -2 ± 0.14

ACGUAGCAAUAUUACGUAUU
self-splicing fitness (ln) (30 °C): -3.93 ± 0.17
self-splicing fitness (ln) (37 °C): -2.48 ± 0.15

ACGUAGCAAUAUUACGUGGA
self-splicing fitness (ln) (30 °C): -3.46 ± 0.32
self-splicing fitness (ln) (37 °C): -2.2 ± 0.23

ACGUAGCAAUAUUACGUUAG
self-splicing fitness (ln) (30 °C): -3.99 ± 0.16
self-splicing fitness (ln) (37 °C): -2.13 ± 0.15

ACGUAGCAAUAUUACGUUCU
self-splicing fitness (ln) (30 °C): -2.3 ± 0.097
self-splicing fitness (ln) (37 °C): -0.807 ± 0.076
